Measurements as given in the supplement of paper PMC10724198.
± gives the standard deviation of the averaged measurements.

System: Saccharomyces cerevisiae
Assay: protein stability index of tFT-peptide fusion (C-terminal peptide) (PSI (0-1 scale)); higher = more stable (slower turnover)
Conditions: temperature: 30 C
Method: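 MPS profiling in S. cerevisiae of the yeast C-terminome library: the last 12 aa of each annotated ORF are fused to the C-terminus of a sfGFP-mCherry timer, after a GGGS linker. Cells are FACS-sorted into 8 mCherry/sfGFP bins and deep-sequenced. PSI runs from 0 (unstable) to 1 (stable); wild type and das1Δ backgrounds, two technical replicates each.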

[1] = genetic background: das1 deletion

Sequence | protein stability index [1] | protein stability index (genetic background: wild type)
VNPKAKRPSNEK [NOP2 C-terminal 12 aa] | 0.712 ± 0.044 | 0.754 ± 0.042
YELDGPYMSKRI [ELP3 C-terminal 12 aa] | 0.6788 ± 0.0018 | 0.704 ± 0.062
RLTSRSGSANRA [SAC7 C-terminal 12 aa] | 0.706 ± 0.028 | 0.65006 ± 5.7e-05
DNKPKLSDVEKD [GEA2 C-terminal 12 aa] | 0.698 ± 0.019 | 0.707 ± 0.017
SNSLPKLKFHSM [OCA6 C-terminal 12 aa] | 0.725 ± 0.044 | 0.681 ± 0.011
PLGEKFLNISNS [TEN1 C-terminal 12 aa] | 0.7047 ± 0.0035 | 0.694 ± 0.013
SVLSGSAEFVFY [NCA3 C-terminal 12 aa] | 0.7188 ± 0.0024 | 0.7148 ± 0.0061
QALFVLYYLYSI [YDR406W-A C-terminal 12 aa] | 0.428 ± 0.018 | 0.445 ± 0.013
DNEGSRKMLKIE [CIN8 C-terminal 12 aa] | 0.6613 ± 0.0033 | 0.662 ± 0.042
TMNCNNADDMLF [YGR190C C-terminal 12 aa] | 0.6995 ± 0.004 | 0.677 ± 0.022
LLKQLKQGKISV [NOT3 C-terminal 12 aa] | 0.669 ± 0.022 | 0.6481 ± 0.0033
RCSETKQQVMNS [BTT1 C-terminal 12 aa] | 0.669 ± 0.033 | 0.691 ± 0.0026
SSGCRRLMVGYN [ERC1 C-terminal 12 aa] | 0.6979 ± 0.0017 | 0.684 ± 0.0074
GIGFTNTSKKIA [RCL1 C-terminal 12 aa] | 0.708 ± 0.027 | 0.5373 ± 0.0012
YVKQQHGQSQND [EAF6 C-terminal 12 aa] | 0.695 ± 0.021 | 0.694 ± 0.022
EIKHVFTGVYGG [ASP1 C-terminal 12 aa] | 0.68 ± 0.006 | 0.686 ± 0.0042
VSDSEQSDTKGI [UAF30 C-terminal 12 aa] | 0.6733 ± 0.0011 | 0.676 ± 0.016
YKTQTGNFQVRL [APM3 C-terminal 12 aa] | 0.706 ± 0.0095 | 0.722 ± 0.0093
LRSKVKNHAQRH [YLR428C C-terminal 12 aa] | 0.714 ± 0.018 | 0.693 ± 0.021
LNKKREKKDETE [CSM1 C-terminal 12 aa] | 0.707 ± 0.038 | 0.718 ± 0.055
ELTDFKYPSNYE [PUT2 C-terminal 12 aa] | 0.6787 ± 0.0024 | 0.711 ± 0.066

Sequence | protein stability index [1] | protein stability index (genetic background: wild type)
FINCSSKYNGLQ [YBR224W C-terminal 12 aa] | 0.687 ± 0.0088 | 0.703 ± 0.019
NYLKKHSEKQDA [ATP19 C-terminal 12 aa] | 0.709 ± 0.022 | 0.723 ± 0.066
FSSFKFLDTSYL [CKI1 C-terminal 12 aa] | 0.748 ± 0.0096 | 0.697 ± 0.048
RKEVIDALVSLS [AIM46 C-terminal 12 aa] | 0.7011 ± 0.0026 | 0.6881 ± 0.0046
LLEAFLRKEQKV [YGR174W-A C-terminal 12 aa] | 0.596 ± 0.012 | 0.619 ± 0.019
NSTSSKDKKKKN [SES1 C-terminal 12 aa] | 0.707 ± 0.008 | 0.7314 ± 0.0025
VKKYSMKKKKKR [YDR320W-B C-terminal 12 aa] | 0.671 ± 0.014 | 0.62 ± 0.0065
FELVQPKGRRKH [TSR2 C-terminal 12 aa] | 0.711 ± 0.016 | 0.686 ± 0.058
KKHDWSDISQLW [OSH3 C-terminal 12 aa] | 0.7283 ± 0.0011 | 0.728 ± 0.016
WAKRAFDGQFVK [DAP2 C-terminal 12 aa] | 0.717 ± 0.0086 | 0.735 ± 0.017
NRRSDKNLPDAT [STE12 C-terminal 12 aa] | 0.7085 ± 0.002 | 0.694 ± 0.0077
RVSLEKEAKQHG [ERV2 C-terminal 12 aa] | 0.715 ± 0.025 | 0.673 ± 0.0072
ELSNNLNVDEFV [LRS4 C-terminal 12 aa] | 0.692 ± 0.0034 | 0.687 ± 0.034
KSGPEWIAENRD [TUM1 C-terminal 12 aa] | 0.716 ± 0.023 | 0.7166 ± 0.0051
TKLGEQRHLCTD [ESL2 C-terminal 12 aa] | 0.698 ± 0.019 | 0.7 ± 0.013
SHKGFFQKLGCC [YCK1 C-terminal 12 aa] | 0.692 ± 0.0098 | 0.677 ± 0.01
NGLNWEVIEYHA [HRI1 C-terminal 12 aa] | 0.724 ± 0.008 | 0.713 ± 0.042
YIKEAQSACNDV [COS12 C-terminal 12 aa] | 0.692 ± 0.018 | 0.664 ± 0.03
GTLVLGTYLLAQ [SHH3 C-terminal 12 aa] | 0.612 ± 0.027 | 0.639 ± 0.037
ETYGSKIVYRFS [GAL10 C-terminal 12 aa] | 0.692 ± 0.031 | 0.7035 ± 0.0018
TDDNNIQTILLK [YIG1 C-terminal 12 aa] | 0.679 ± 0.012 | 0.704 ± 0.044

Sequence | protein stability index [1] | protein stability index (genetic background: wild type)
MYCASFQLPANV [TRM5 C-terminal 12 aa] | 0.673 ± 0.015 | 0.6578 ± 0.0027
RHCARVKRSSRL [LYS1 C-terminal 12 aa] | 0.778 ± 0.024 | 0.823 ± 0.046
MVYKPEDSLLKI [MTR2 C-terminal 12 aa] | 0.684 ± 0.039 | 0.67 ± 0.014
YGANSQQTFEHT [YFR034W-A C-terminal 12 aa] | 0.706 ± 0.011 | 0.728 ± 0.026
DQAAKTFVIKKD [MDM38 C-terminal 12 aa] | 0.703 ± 0.019 | 0.668 ± 0.028
FCAAYQGKKNNK [SLN1 C-terminal 12 aa] | 0.696 ± 0.022 | 0.659 ± 0.039
VELYENQSHMQN [CDC9 C-terminal 12 aa] | 0.701 ± 0.01 | 0.678 ± 0.074
IRYSMPYRLASN [YLR264C-A C-terminal 12 aa] | 0.6856 ± 0.0022 | 0.648 ± 0.019
LQMVKNAKDLST [CYR1 C-terminal 12 aa] | 0.6866 ± 0.0026 | 0.694 ± 0.016
QKYLEELQKKKF [YET2 C-terminal 12 aa] | 0.712 ± 0.023 | 0.7424 ± 0.0019
NNNIANDYMDID [YML053C C-terminal 12 aa] | 0.7268 ± 0.005 | 0.815 ± 0.067
RLNNWLFGWNDL [NUP53 C-terminal 12 aa] | 0.785 ± 0.012 | 0.707 ± 0.0094
NVPSFGQDELDQ [MPS3 C-terminal 12 aa] | 0.699 ± 0.016 | 0.688 ± 0.011
GLVGQHQGGGSM [RTC5 C-terminal 12 aa] | 0.68 ± 0.0094 | 0.6633 ± 0.0038
RGRIAAQKRISA [RPL17B C-terminal 12 aa] | 0.681 ± 0.014 | 0.663 ± 0.016
LADSKHCSGLHK [ASF2 C-terminal 12 aa] | 0.6837 ± 0.0028 | 0.703 ± 0.0086
LCMSCGYVSAGK [YMR173W-A C-terminal 12 aa] | 0.697 ± 0.016 | 0.749 ± 0.046
FFSRVKSFKDPG [HRT3 C-terminal 12 aa] | 0.7153 ± 0.0048 | 0.688 ± 0.022
KTETLSVPRILT [YBR090C C-terminal 12 aa] | 0.689 ± 0.01 | 0.722 ± 0.059
